The values below come from paper PMC8994553, “Effects of chameleon dispense-to-plunge speed on particle concentration, complex formation, and final resolution: A case study using the Neisseria gonorrhoeae ribonucleotide reductase inactive complex” (Journal of structural biology, 2021).

This series concerns the molecule itself. Description: cryo-EM structure; α and β mixed 1:1.5 (α:β) with 1 mM dATP and 1 mM CDP on ice in 50 mM HEPES pH 7.6, 15 mM MgCl2, 1 mM EDTA; chameleon 54 ms dispense-to-plunge, 6 mg/mL protein (4.3 Å); also Vitrobot grid, 0.5 mg/mL (5.6 Å); dATP-inactivating conditions.

B1: Neisseria gonorrhoeae class Ia ribonucleotide reductase NrdB (β) subunit, hydroxyurea-inactivated (met-β2) (enzyme, UniProt A0ACH0F974 1-377, looked up)
chain: MSYSTFPKTKNDALKEPMFFGQPVNVARYDQQKYEVFEKLIEKQLSFFWRPEEIDVSRDRIDYANLPEHEKHIFISNLKYQTLLDSIQGRSPNVALLPLVSIPELETWVETWSFSETIHSRSYTHIIRNIVNDPSVVFDDIVENEYITARAEDIACYYDDLIEYTQYYNLLGEGVHNVGGKPVTVSLRGLKKKLYLCLMCVNVLEAIRFYVSFACSFAFAERELMEGNAKIIKLIARDEALHLTGTQHMLNLMRSGVDDPEMAEIAAELQDECFQLFKKAAEQEKEWAAYLFKDGSMIGLNKEILSQYVEYITNLRMQAVGLPAGFEGANQNPIPWINAWLSSDNVQVAPQEVEISSYLIGQIDSEVNTDDLGDFEL
notes: N. gonorrhoeae class Ia RNR radical-generating subunit NrdB (β); 377 residues as printed (model holds four residues of the histidine tag, residues 1-346 and 374-376 of 377); expected MW 43253 Da; met-β2: diiron cluster reconstituted (1.8 +/- 0.3 iron per monomer), tyrosyl radical quenched with hydroxyurea; also called NgRNR β; His6-TEV-NgRNR β; source: E. coli T7 Express, pET30a(+), purified …
With B1, the binding result is reported as “binds”.
